Holding throughout (experiment): cleavage_in_vitro
For series [1], the system named is T1, OMNI-128 (metagenomic, unknown).
T1 sequence: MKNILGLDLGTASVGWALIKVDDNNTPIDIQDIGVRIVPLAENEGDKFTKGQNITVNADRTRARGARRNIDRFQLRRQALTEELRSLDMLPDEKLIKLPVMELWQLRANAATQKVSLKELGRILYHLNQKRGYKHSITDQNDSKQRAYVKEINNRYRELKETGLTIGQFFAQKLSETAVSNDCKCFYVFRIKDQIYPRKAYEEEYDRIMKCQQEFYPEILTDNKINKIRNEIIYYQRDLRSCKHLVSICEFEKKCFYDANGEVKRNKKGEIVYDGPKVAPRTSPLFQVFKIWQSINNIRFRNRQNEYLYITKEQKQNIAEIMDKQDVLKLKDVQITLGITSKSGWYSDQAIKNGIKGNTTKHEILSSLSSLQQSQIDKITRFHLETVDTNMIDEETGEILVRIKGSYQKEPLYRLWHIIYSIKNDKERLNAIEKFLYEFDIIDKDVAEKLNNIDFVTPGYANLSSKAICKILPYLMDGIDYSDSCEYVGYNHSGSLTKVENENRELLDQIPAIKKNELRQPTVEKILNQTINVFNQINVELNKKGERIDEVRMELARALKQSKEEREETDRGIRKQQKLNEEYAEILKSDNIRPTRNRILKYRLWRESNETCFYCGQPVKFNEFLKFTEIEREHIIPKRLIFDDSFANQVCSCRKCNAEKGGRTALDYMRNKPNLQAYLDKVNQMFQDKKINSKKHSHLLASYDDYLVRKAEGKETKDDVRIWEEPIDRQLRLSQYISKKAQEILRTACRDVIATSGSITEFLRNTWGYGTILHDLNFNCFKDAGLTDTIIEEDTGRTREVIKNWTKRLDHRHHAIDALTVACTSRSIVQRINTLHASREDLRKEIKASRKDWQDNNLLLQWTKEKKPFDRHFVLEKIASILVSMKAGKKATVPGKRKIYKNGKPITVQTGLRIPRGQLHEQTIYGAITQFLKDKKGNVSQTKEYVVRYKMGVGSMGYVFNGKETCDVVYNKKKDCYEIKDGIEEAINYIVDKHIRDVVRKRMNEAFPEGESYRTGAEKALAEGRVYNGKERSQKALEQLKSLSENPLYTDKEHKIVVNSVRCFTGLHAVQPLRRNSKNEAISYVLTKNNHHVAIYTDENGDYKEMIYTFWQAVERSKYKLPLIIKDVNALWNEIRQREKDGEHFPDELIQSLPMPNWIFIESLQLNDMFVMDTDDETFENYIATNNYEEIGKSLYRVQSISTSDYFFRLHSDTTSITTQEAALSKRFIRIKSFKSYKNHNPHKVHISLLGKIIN
The conditions noted are these: TXTL; PAM NRYHCCNN

For series [2], the system named is T2, OMNI-91 (metagenomic, unknown).
T2 sequence: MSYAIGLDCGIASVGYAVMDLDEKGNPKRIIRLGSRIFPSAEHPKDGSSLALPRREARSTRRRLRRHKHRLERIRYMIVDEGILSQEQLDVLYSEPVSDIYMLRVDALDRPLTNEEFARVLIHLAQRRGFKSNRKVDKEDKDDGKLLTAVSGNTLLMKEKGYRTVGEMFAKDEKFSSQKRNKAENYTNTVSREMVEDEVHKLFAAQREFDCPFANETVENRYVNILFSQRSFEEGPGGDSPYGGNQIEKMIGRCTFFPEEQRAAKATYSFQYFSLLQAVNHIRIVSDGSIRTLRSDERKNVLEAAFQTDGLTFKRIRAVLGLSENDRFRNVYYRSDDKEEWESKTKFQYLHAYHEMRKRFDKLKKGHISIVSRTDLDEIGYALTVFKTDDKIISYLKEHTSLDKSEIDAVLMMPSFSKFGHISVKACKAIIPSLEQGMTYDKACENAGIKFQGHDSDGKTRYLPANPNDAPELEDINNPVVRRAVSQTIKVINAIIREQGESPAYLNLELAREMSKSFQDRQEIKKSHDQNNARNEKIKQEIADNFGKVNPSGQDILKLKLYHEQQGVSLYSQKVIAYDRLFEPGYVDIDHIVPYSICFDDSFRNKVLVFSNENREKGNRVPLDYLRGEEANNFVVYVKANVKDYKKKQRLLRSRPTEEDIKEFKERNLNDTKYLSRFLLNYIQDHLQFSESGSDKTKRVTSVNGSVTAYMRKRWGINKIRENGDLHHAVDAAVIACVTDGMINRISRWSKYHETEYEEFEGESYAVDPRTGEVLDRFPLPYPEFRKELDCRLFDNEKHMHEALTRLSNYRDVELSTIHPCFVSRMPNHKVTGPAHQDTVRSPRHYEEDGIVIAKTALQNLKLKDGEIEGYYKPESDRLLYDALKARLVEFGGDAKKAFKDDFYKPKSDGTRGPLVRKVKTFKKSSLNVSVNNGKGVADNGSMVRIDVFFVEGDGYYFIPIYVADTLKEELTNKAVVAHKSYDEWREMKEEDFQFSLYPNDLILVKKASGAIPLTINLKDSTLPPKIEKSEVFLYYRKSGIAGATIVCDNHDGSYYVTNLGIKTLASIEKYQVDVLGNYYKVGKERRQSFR
The note with it: TXTL; PAM NNGNRTNN

The subject of series [3] is T3, OMNI-131 (metagenomic, unknown).
T3 sequence: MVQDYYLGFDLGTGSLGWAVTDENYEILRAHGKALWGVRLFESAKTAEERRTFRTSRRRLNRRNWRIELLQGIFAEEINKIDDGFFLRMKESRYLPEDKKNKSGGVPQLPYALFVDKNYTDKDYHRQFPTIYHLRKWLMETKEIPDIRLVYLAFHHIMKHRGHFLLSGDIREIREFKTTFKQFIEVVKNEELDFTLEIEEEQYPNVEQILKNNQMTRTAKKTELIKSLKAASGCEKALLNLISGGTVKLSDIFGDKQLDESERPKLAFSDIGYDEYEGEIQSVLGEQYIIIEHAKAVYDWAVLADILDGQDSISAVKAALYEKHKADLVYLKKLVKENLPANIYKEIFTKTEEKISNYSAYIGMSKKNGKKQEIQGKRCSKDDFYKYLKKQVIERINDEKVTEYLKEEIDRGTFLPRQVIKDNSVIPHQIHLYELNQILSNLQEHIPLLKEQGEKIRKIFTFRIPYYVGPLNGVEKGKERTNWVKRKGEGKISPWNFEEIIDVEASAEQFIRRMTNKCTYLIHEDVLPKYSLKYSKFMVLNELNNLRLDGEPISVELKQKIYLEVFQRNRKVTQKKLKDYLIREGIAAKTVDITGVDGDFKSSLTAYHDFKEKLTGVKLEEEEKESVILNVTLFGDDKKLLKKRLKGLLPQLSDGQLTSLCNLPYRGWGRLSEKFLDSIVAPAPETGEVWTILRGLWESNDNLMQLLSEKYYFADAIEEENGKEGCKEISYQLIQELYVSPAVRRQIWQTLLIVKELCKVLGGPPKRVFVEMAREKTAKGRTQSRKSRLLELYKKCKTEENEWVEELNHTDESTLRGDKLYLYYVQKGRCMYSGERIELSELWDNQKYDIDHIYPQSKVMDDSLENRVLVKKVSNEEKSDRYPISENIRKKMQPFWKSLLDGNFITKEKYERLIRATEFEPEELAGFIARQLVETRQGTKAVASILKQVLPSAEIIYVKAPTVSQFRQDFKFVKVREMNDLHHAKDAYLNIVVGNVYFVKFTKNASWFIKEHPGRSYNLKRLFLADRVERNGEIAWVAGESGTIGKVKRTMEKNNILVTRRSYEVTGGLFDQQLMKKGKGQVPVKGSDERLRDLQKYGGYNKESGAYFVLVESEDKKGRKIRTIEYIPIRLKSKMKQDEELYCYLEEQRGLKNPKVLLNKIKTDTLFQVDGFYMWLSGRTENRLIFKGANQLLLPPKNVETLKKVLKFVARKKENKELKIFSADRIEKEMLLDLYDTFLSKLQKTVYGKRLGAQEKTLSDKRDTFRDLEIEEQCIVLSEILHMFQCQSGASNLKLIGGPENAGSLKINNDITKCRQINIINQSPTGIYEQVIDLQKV
The note with it: TXTL; PAM NRWRCCNN

For series [4], the system named is T4, OMNI-129 (metagenomic, unknown).
T4 sequence: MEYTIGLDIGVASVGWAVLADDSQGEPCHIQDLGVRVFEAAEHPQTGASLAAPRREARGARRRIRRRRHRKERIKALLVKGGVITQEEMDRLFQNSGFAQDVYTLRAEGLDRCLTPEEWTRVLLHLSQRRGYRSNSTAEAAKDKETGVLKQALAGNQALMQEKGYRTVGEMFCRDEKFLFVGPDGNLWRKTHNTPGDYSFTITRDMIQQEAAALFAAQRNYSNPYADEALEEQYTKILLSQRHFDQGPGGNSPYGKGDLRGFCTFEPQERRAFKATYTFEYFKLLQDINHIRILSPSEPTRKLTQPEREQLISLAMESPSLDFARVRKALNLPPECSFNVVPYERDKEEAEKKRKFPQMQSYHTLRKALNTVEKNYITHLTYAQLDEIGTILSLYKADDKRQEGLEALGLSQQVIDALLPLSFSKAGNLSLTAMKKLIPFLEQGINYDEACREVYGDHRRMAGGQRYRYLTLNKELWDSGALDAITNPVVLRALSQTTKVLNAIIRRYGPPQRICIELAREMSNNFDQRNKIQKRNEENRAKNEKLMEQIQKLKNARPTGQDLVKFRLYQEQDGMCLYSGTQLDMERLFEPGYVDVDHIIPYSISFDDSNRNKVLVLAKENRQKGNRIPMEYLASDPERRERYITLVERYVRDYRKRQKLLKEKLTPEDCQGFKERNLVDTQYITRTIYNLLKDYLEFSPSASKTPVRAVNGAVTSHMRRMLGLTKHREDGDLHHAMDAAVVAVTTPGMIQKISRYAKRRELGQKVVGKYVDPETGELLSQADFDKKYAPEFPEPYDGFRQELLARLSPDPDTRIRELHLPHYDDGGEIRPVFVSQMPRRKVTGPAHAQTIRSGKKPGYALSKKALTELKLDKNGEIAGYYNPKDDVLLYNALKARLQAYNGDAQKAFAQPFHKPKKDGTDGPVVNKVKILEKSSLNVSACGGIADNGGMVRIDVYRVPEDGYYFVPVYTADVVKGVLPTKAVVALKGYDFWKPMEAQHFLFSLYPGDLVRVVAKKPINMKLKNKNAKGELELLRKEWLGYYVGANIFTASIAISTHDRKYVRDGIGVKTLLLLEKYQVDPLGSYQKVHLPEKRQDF
The note with it: TXTL; PAM NNNNGAAA

In the case of “GGAAGAGCAGAGCCUUGGUCUCGUUGUGAUUUGCUGAAGAAAUUCAGCAAAUCACAAUAAGGAUUAUUCCGUUGUGAAAACAUUCAAGGCGGCGCAAGUCGCCUUUUUU / GGAAGAGCAGAGCCTTGGTCTCNNNNNNNN / NNNNNNNNGAGACCAAGGCTCTGCTCTTCC [T2 sgRNA 29 V1 ; T2 protospacer + 8N PAM library (pbPOS T2)]”, in series [1], the activity (1-depletion score) was 0.87.

Consider “GGAAGAGCAGAGCCUUGGUCUCGUUGUAGUCCCCUCGUAGUGAAAACUAUCAGGUCACUACAAUAAAGUAGAACACUGAAAAGCUCUGACGGCCCACUUUCCGUGGGUCGUCAUCUUUUUU / GGAAGAGCAGAGCCTTGGTCTCNNNNNNNN / NNNNNNNNGAGACCAAGGCTCTGCTCTTCC [T2 sgRNA 2 V1 ; T2 protospacer + 8N PAM library (pbPOS T2)]”, for which the activity (1-depletion score) in series [2] is 0.96.

In series [3], “GGAAGAGCAGAGCCUUGGUCUCGUUUGAGAAUGAUGUAAGAAAUUACAUCAUAAGUUCAAAUAACGAUUUAUCGAAGACGCCGUUUAUAACGGCCCACAGUGAGUGGAAAGAAAGCUGUUGCUCAUAGGAGCAGCAGUUUUUU / GGAAGAGCAGAGCCTTGGTCTCNNNNNNNN / NNNNNNNNGAGACCAAGGCTCTGCTCTTCC [T2 sgRNA 31 V1 ; T2 protospacer + 8N PAM library (pbPOS T2)]” came in with an activity (1-depletion score) of 0.95.

In series [4], “GGAAGAGCAGAGCCUUGGUCUCGUUGUAGUUCCCUAAUGUUGAAAGACAUUAGGUUACUGCGAUCAGGCAGUAUGCCUCAGAGCUCCGCCCUAACCACGUUUUGUGGUUGGGGCGUCUUUGCAUUUUUU / GGAAGAGCAGAGCCTTGGTCTCNNNNNNNN / NNNNNNNNGAGACCAAGGCTCTGCTCTTCC [T2 sgRNA 30 V1 ; T2 protospacer + 8N PAM library (pbPOS T2)]” gave an activity (1-depletion score) of 0.95.

The values above are taken from patent US20240425885.
